Tests used:
[1] = biological target: T1, human PD-L1 expressed on CHO-K1 cells (Genscript, Cat #M00543) (human, UniProt Q9NZQ7 19-290); assay: cell-based or functional assay
[2] = biological target: T1, human PD-L1 expressed on CHO-K1 cells …; assay: FACS, CHO-K1/human PD-L1 cells
Experimental: (§1) PD-L1 stable cell line binding activity assessment of 12 mouse mAbs was carried out using FACS. CHO-K1 cells expressing human PD-L1 (Genscript, Cat #M00543) were dissociated from adherent culture flasks and mixed with varying concentrations of antibodies. The antibody and cells were incubated for 30 minutes at room temperature, washed three times with FACS buffer (PBS containing 1% BSA). PE-labeled goat anti-mouse IgG (minimal x-reactivity) secondary antibody (BioLegend, Cat #405307) was added and incubated at room temperature for 15 minutes. Cells were washed again with FACS buffer and analyzed by FACSCalibur (BD Bioscience, San Jose, Calif.) and Flowjo software. Data were analyzed with Prism 6 (GraphPad Software, San Diego, Calif.) using non-linear regression, and EC₅₀ values were calculated (FIGS. 2A-2L and Table 3).

[3] = biological target: T2, His-tagged PD-L1 ECD protein (ACROBiosystems) (human, UniProt Q9NZQ7 19-238); assay: SPR, mAb captured via anti-Fc, PD-L1-His analyte
T2 construct: Bought protein; also called PD-L1-His; PD-L1/His; not shown: His tag
T2 sequence (Q9NZQ7 19-238): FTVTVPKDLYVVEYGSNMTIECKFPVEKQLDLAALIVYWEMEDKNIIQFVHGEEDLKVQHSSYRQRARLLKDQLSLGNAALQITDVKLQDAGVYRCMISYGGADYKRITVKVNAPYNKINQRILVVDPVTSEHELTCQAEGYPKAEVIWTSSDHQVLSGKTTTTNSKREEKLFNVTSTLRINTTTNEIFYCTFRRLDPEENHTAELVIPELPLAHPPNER
Experimental: Briefly, capturing antibody (anti-mouse Fc antibody for the affinity measurement of mouse mAbs, or anti-human Fc antibody for the affinity measurement of chimeric and humanized mAbs, GE healthcare) was immobilized on a Biacore™ CM5 chip to approximately 7,000 RU using EDC-activated amine coupling chemistry. Antibody of interest (5 μg/ml) was captured for 60 seconds onto the sensorchip surface. His-tagged PD-L1 ECD protein (ACROBiosystems) was flowed over the sensorchip surface at a series concentrations. Flow rate was 30 μl/min in all experiments. Association and dissociation phases were 5 and 15 min, respectively. The chip was regenerated using Glycine/HCl pH 1.5. Captured antibody and antigen were removed between each cycle using 50 mM HCl in order to ensure a fresh binding surface for each concentration of antigen. The resulting sensorgrams were fit globally using a 1:1 binding model in order to calculate on- and off-rates (ka and kd, respectively), as well as affinities (KD).

[4] = biological target: T1, human PD-L1 expressed on CHO-K1 cells …; assay: FACS competition vs biotin-PD-1-Fc on CHO-K1/human PD-L1 cells
Experimental: A series of diluted mouse mAbs (concentration starting from 900 nM, 3 fold dilution, 50 μl per well) were added afterwards. The mixture was incubated at 4° C. for 30 minutes, washed twice with wash buffer, followed by the addition of PEcy5/streptavidin (1 μg/ml, 150 μl/well). The plates were again incubated at 4° C. for 30 minutes before the cells in each well were analyzed by FACSCalibur (BD Bioscience, San Jose, Calif.) and Flowjo software.

[5] = biological target: T1, human PD-L1 expressed on CHO-K1 cells …; assay: FACS on CHO-K1 cells expressing human PD-L1, PE-labeled goat anti-mouse IgG secondary antibody
Experimental: as §1

T1 sequence (Q9NZQ7 19-290, one chain of several): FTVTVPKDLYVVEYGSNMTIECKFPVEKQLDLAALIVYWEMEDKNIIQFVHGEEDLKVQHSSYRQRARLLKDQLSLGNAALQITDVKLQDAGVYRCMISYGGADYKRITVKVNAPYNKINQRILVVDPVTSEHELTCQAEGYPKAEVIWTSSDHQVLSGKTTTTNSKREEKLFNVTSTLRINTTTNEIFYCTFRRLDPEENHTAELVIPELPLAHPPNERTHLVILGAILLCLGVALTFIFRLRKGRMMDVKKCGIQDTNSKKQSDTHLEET

EC50, PD-L1 cell-based luciferase reporter assay [1] | EC50 [2] | Top (best-fit value) [2] | Kd [3] | koff [3] | kon [3] | IC50 [4] | EC50 (read off the curve) [5] | Binder
4.45 nM | 3.73 nM | 2020 | 0.61 nM | 0.00019 s⁻¹ | 320000 M⁻¹ s⁻¹ | 1.27 nM |  | 53C1F3D4 (antibody, V domains shown, Mouse mAb from hybridoma culture; also called mouse 53C1F3D4) VH: QVQLQQSGNELARPGASVRLSCKASGYIFTGYGITWVRQRPGQGLEWIGEIFPRRVNTYYSEKFKGRATLTADISSSTAYMELRSLTSEDSAVYFCARDYDPYFALDYWGQGTSVTVSS VL: DIVMTQSHKFMSTSVGDRVSITCKASQDVSTAVDWYQQKPGQSPKLLIYSASYRYTGVPDRFTGSGSGTAFTFTISGEQAEDLAVYYCQQHYSIPFTFGGGTKLEIK
2.27 nM | 0.62 nM | 399 |  |  |  |  | ~3 nM | 18B7F4G8 (antibody, V domains shown, Mouse mAb from hybridoma culture) VH: DVQLQESGPDLVKPSQSLSLTCTVTGYSITSGYTWHWIRQFPGNKLEWMGYIHYSGSTKYNPSLKSRFSITRDTSKNQFFLQLNSMTAEDTATYYCARNSLFASWGHGTLVTVSA VL: DIVLTQSPASLAVSLGQRATISCRASESVDTYGDSFMHWFQQKPGQPPKLLIYRASNLESGIPARFSGSGSRTDFTLTINPVEADDVATYYCQQSNEAPYTFGGGTKLEIK
